# Experimental data reported in patent US20250289891A1 (AUTOLUS, published 2025).
# T1: Plate bound FcRH5 antigen (UniProt Q96RD9)
# T1 sequence (looked up): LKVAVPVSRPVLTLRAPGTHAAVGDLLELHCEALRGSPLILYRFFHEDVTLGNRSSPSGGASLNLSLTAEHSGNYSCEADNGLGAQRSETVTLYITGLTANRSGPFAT
# T2: Recombinant purified FcRH5 Ig-8 domain (UniProt Q96RD9 743-850, limits assumed)
# T2 construct: domain: Ig8
# T2 sequence (looked up): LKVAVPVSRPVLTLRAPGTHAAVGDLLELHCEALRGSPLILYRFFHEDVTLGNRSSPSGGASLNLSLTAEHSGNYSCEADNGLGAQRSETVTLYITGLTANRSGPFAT
# Molecular target: T1, Plate bound FcRH5 antigen
# Experiment: cell-based or functional assay
Binder,EC50 (µg/ml) of percentage Nur77 activation by plate bound FcRH5 antigen (µg/ml FcRH5 coating),Nur77-mClover positive cells after 24 h 10 µg/ml (% upregulation) [%]
"Anti-FcRH5 VHH-CAR 66829 (VHH of AU60460), on Jurkat T cells (protein, not shown: large carriers) QVQLQESGGGLVQAGGSLRLSCAASGRTYNNYAMGWFRQAPGKEREFVAGISRSGGMTGYAESVKGRFTISRDNAKNMVFLQMNSLKPEDTAVYYCAAYVGGFSTARRDYSYWGQGTQVTVS",1.43,44.5
"Anti-FcRH5 VHH-CAR 66836 (VHH of AU60467), on Jurkat T cells (protein, not shown: large carriers) QVQLQESGGGLVQAGDSLRLSCAASGRTFDSRPMGWFRQAPGKEREFVGAVSWRGESTYYPDSVKGRFTISRDNAKRTVYLQMNSLKPEDTAVYYCAAGEPYSGTYYYRGRDYDYWGQGTQVTVS",–,0.898
"Anti-FcRH5 VHH-CAR 66825 (VHH of AU60387), on Jurkat T cells (protein, not shown: large carriers) QVQLQESGGGLVQAGGSLRLSCAASGRTFSTYGMGWFRQAPGKEREFVAAISRSGGATAYAASVKGRFTISRDDVKNTLYLQMNSLKPEDTAVYHCAGTRRAFSTGLRDYDYWGQGIQVTVS",2.42,39
"Anti-FcRH5 VHH-CAR 66835 (VHH of AU60466), on Jurkat T cells (protein, not shown: large carriers) QVQLQQSGGGLVQAGGSLSLSCTASGRSFSNYGMGWFRQAPGKEREFVAAIGMVGGLTAYSNSAKGRFTISRDNAKNTLYLQMNSLKPEDTAVYLCAAGRRFSTSSRDYDIWGQGTQVTVS",0.977,45.5
"Anti-FcRH5 VHH-CAR 66831 (VHH of AU60462), on Jurkat T cells (protein, not shown: large carriers) QVQLQESGGGLVQAGGSLRLSCTASGRTSSRAAMGWFRQAPGKEREFVAVISWSGGTTAYANSVKGRFTISRDNAKNTLYLQMNSLKPEDTAVYYCAAARIFTTARNDYDHWGQGTQVTVS",–,2.59
"Anti-FcRH5 VHH-CAR 66828 (VHH of AU60390), on Jurkat T cells (protein, not shown: large carriers) QVQLQQSGGGLVQAGDSLRLSCAASGRTFSNSTMGWFRQAPGKERKFVAVISWSGGTYAYAESVKGRFTISRDNAKNTVYLQMNSLKPEDTAVYYCAAARKGWSTRGDDYDYWGQGTQVTVS",1.8,34.2
"Anti-FcRH5 VHH-CAR 66823 (VHH of AU60385), on Jurkat T cells (protein, not shown: large carriers) QVQLQESGGGLVQAGGSLRLSCAASGRTFSTYAMAWFRQAPGKEREFVAAISGFGVVTYYADSVKGRFTISRDNAKNTLYLQMNGLKPEDTAVYYCAAGRRTSTNGGDYDYWGQGTQVTVS",1.54,26.5
"Anti-FcRH5 VHH-CAR 66832 (VHH of AU60463), on Jurkat T cells (protein, not shown: large carriers) QVQLQESGGGLVQAGDSLRLSCAYSGRTFSSYAMGWFRQAPGKERVFVAAISRIGGVTTYAESVQGRFTISRDNAKNTLYLQMNALKPEDTAVYYCAAAGLVSISTTPNDYDYWGQGTQVTVS",2,38.4

# Molecular target: T2, Recombinant purified FcRH5 Ig-8 domain
# Experiment: SPR, Biacore 8k, VHH-mIgG2a Fc captured by anti-mouse kit on CM5, FcRH5 Ig8 as analyte (500 nM, 2-fold dilutions), 1:1 Langmuir fit, 25 C
# Description: Recombinant anti-FcRH5 antibodies in mouse IgG2a format were captured on flow cell 2 on a Series S CM5 chip (GE Healthcare), functionalised with anti-mouse capture kit according to manufacturer's recommendations (GE Healthcare). Antibodies were captured to a density of 160 RU using a Biacore 8k instrument. HBS-P+ buffer was used as running buffer in all experimental conditions. Recombinant purified FcRH5 Ig-8 domain at known concentrations (500 nM with 2-fold serial dilutions) used as the ‘analyte’ and injected over the respective flow cells with 150s contact time and 500s dissociation at 30 μl/minute of flow rate with a constant temperature of 25° C. In each experiment, flow cell 1 was unmodified and used for reference subtraction. A ‘0 concentration’ sensogram of buffer alone was used as a double reference subtraction to factor for drift. Data were fit to a 1:1 Langmuir binding model. Since a capture system was used, a local maximal analytical response (Rmax) parameter was used for the data fitting in each case.
Binder,Kd [nM],koff [s⁻¹],kon [M⁻¹ s⁻¹]
"Anti-FcRH5 VHH-Fc AU60464 (AbVec.aFcRH5.dAb-MIgG2a-Fc.Clone.E11) (Fc fusion, not shown: murine IgG2a Fc domain) QVQLQQSGGGLVQPGGSLRLSCAAPGNIFRLNGTGWYRQAPGKQRELVAHITSGGNTDYADSVKGRFTISRDNAKNTVYLQMNSLKPEDTAVYYCNAIPFRLSWGQGTQVTVS",4.84,0.00289,596000
"Anti-FcRH5 VHH-Fc AU60460 (AbVec.aFcRH5.dAb-MIgG2a-Fc.Clone.C10) (Fc fusion, VHH fused to murine IgG2a Fc; not shown: murine IgG2a Fc domain) QVQLQESGGGLVQAGGSLRLSCAASGRTYNNYAMGWFRQAPGKEREFVAGISRSGGMTGYAESVKGRFTISRDNAKNMVFLQMNSLKPEDTAVYYCAAYVGGFSTARRDYSYWGQGTQVTVS",0.669,3.4e-05,50800
"Anti-FcRH5 VHH-Fc AU60370 (AbVec.aFcRH5.dAb-MIgG2a-Fc.Clone.B04) (Fc fusion, not shown: murine IgG2a Fc domain) QVQLQESGGGSVQPGGSLSLSCAASGFTFSNYAMSWVRQAPGKGPEWVAVINSDGGTASSAGSVRGRFTISRDNAKNTLYLQMNRLKPEDTAVYYCAANRGFCAGVRCLEYQYWGQGTQVTVS",3.64,0.00028,76800
"Anti-FcRH5 VHH-Fc AU60382 (AbVec.aFcRH5.dAb-MIgG2a-Fc.Clone.B07) (Fc fusion, not shown: murine IgG2a Fc domain) QVQLQESGGGLVQAGGSLIVSCAASGRTFSINAMAWFRQAPGKEREFVAAIGGSGRVSSTSYADFVKGRFTISRDNAKNTVYLRMNNLEPEDTAVYYCAARRDYLPFPPESYDYWGQGTQVTVA",4.34,0.000515,119000
"Anti-FcRH5 VHH-Fc AU60466 (AbVec.aFcRH5.dAb-MIgG2a-Fc.Clone.F01) (Fc fusion, not shown: murine IgG2a Fc domain) QVQLQQSGGGLVQAGGSLSLSCTASGRSFSNYGMGWFRQAPGKEREFVAAIGMVGGLTAYSNSAKGRFTISRDNAKNTLYLQMNSLKPEDTAVYLCAAGRRFSTSSRDYDIWGQGTQVTVS",3.14,0.000469,150000
"Anti-FcRH5 VHH-Fc AU60462 (AbVec.aFcRH5.dAb-MIgG2a-Fc.Clone.E04) (Fc fusion, VHH fused to murine IgG2a Fc; not shown: murine IgG2a Fc domain) QVQLQESGGGLVQAGGSLRLSCTASGRTSSRAAMGWFRQAPGKEREFVAVISWSGGTTAYANSVKGRFTISRDNAKNTLYLQMNSLKPEDTAVYYCAAARIFTTARNDYDHWGQGTQVTVS",5.8,0.000293,50500
"Anti-FcRH5 VHH-Fc AU60465 (AbVec.aFcRH5.dAb-MIgG2a-Fc.Clone.E12) (Fc fusion, not shown: murine IgG2a Fc domain) QVQLQESGGGLVQAGGSLRLSCVVSRNIFSLNPMGWYRQAPGKQREMVAIITDGGSTNYADSVKGRFTISRDNVKNTVYLQMNALEPEDTAVYYCNRVGGLQTWAWGQGTQVTVSS",4.54,0.00306,673000
"Anti-FcRH5 VHH-Fc AU60369 (AbVec.aFcRH5.dAb-MIgG2a-Fc.Clone.B03) (Fc fusion, VHH fused to murine IgG2a Fc, expi-CHO, Protein A purified; not shown: murine IgG2a Fc domain) QVQLQESGGGLVQAGGSLRLSCAASRSSFSNNAMGWYRQVPGKQRELVAFITKGGVTDYSDSVKGRFTISKDNAKNTVYLQMNSLKPEDTAVYYCNTIPFRSAWGQGTQVTVS",4.77,0.00246,516000
"Anti-FcRH5 VHH-Fc AU60385 (AbVec.aFcRH5.dAb-MIgG2a-Fc.Clone.B07 as printed in Table 3; Clone B11 in Table 9) (Fc fusion, not shown: murine IgG2a Fc domain) QVQLQESGGGLVQAGGSLRLSCAASGRTFSTYAMAWFRQAPGKEREFVAAISGFGVVTYYADSVKGRFTISRDNAKNTLYLQMNGLKPEDTAVYYCAAGRRTSTNGGDYDYWGQGTQVTVS",6.56,0.000348,53100
"Anti-FcRH5 VHH-Fc AU60463 (AbVec.aFcRH5.dAb-MIgG2a-Fc.Clone.E07) (Fc fusion, not shown: murine IgG2a Fc domain) QVQLQESGGGLVQAGDSLRLSCAYSGRTFSSYAMGWFRQAPGKERVFVAAISRIGGVTTYAESVQGRFTISRDNAKNTLYLQMNALKPEDTAVYYCAAAGLVSISTTPNDYDYWGQGTQVTVS",2.99,0.000161,53800
"Anti-FcRH5 VHH-Fc AU60471 (AbVec.aFcRH5.dAb-MIgG2a-Fc.Clone.F12) (Fc fusion, VHH fused to murine IgG2a Fc; not shown: murine IgG2a Fc domain) QVQLQESGGGLVQAGGSLRLSCAASGSIFSINAMGWYRQAPGKQRELVAFITSGGSTNYADSVKGRFTISRDNAKNTVYLQMNSLKPEDTAVYYCNALGGFVPSYGWGQGTQVTVS",0.757,0.00025,330000
"Anti-FcRH5 VHH-Fc AU60470 (AbVec.aFcRH5.dAb-MIgG2a-Fc.Clone.F11) (Fc fusion, not shown: murine IgG2a Fc domain) QVQLQESGGGLVQAEGSLRLSCAASGRTFSMYAMGWFRQAPGREREFVAAISGSARITYYGQSVKGRFTISRDNAKNTVYLQMNSLKPEDTAVYYCAASSTYTSTSGSSYNYWGQGTQVTVS",0.255,1.81e-05,70800
